# Source: patent US20170183415A1 (Novartis, published 2017)
# T1: immobilized CD123 (UniProt P26951 19-305, limits assumed)
# T1 construct: also called IL-3Rα; IL3Rα
# T1 sequence (looked up): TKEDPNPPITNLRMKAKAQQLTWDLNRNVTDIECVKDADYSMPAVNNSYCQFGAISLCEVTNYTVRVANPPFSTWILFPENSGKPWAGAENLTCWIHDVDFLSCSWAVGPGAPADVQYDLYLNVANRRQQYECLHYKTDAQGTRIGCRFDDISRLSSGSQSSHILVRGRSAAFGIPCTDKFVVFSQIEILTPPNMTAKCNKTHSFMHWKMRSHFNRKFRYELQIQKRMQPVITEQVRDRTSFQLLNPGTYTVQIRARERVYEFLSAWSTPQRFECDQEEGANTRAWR
# T2: human CD123-Fc (human, UniProt P26951 19-305, limits assumed)
# T2 construct: Staining reagent; not shown: Fc part
# T2 sequence (looked up): T1 sequence (looked up)
# B1: parent mouse scFv (anti-CD123, clone 32716) (scFv)
# scFv: DIVLTQSPASLAVSLGQRATISCRASESVDNYGNTFMHWYQQKPGQPPKLLIYRASNLESGIPARFSGSGSRTDFTLTINPVEADDVATYYCQQSNEDPPTFGAGTKLELKGGGGSGGGGSSGGGSQIQLVQSGPELKKPGETVKISCKASGYIFTNYGMNWVKQAPGKSFKWMGWINTYTGESTYSADFKGRFAFSLETSASTAYLHINDLKNEDTATYFCARSGGYDPMDYWGQGTSVTVSS
# notes: also called mouse Ctrl scFv
# B2: CAR 8 - Full (humanized CD123 CAR) (other)
# chain: QIQLVQSGAEVKKPGASVKVSCKASGYIFTNYGMNWVRQAPGQRLEWMGWINTYTGESTYSADFKGRVTITLDTSASTAYMELSSLRSEDTAVYYCARSGGYDPMDYWGQGTTVTVSSGGGGSGGGGSGGGGSGGGGSEIVLTQSPATLSLSPGERATLSCRASESVDNYGNTFMHWYQQKPGQAPRLLIYRASNLESGIPARFSGSGSRTDFTLTISSLEPEDVAVYYCQQSNEDPPTFGQGTKLEIKTTTPAPRPPTPAPTIASQPLSLRPEACRPAAGGAVHTRGLDFACDIYIWAPLAGTCGVLLLSLVITLYCKRGRKKLLYIFKQPFMRPVQTTQEEDGCSCRFPEEEEGGCELRVKFSRSADAPAYKQGQNQLYNELNLGRREEYDVLDKRRGRDPEMGGKPRRKNPQEGLYNELQKDKMAEAYSEIGMKGERRRGKGHDGLYQGLSTATKDTYDALHMQALPPR
# notes: Chimeric antigen receptor on transduced human T cells; also called UL69-05CC
# B3: 109375 CAR6 - Full (humanized CD123 CAR) (other)
# chain: QIQLVQSGSELKKPGASVKVSCKASGYIFTNYGMNWVRQAPGQGLEWMGWINTYTGESTYSADFKGRFVFSLDTSVSTAYLQINALKAEDTAVYYCARSGGYDPMDYWGQGTTVTVSSGGGGSGGGGSGGGGSGGGGSEIVLTQSPATLSLSPGERATLSCRASESVDNYGNTFMHWYQQKPGQAPRLLIYRASNLESGIPARFSGSGSRTDFTLTISSLEPEDVAVYYCQQSNEDPPTFGQGTKLEIKTTTPAPRPPTPAPTIASQPLSLRPEACRPAAGGAVHTRGLDFACDIYIWAPLAGTCGVLLLSLVITLYCKRGRKKLLYIFKQPFMRPVQTTQEEDGCSCRFPEEEEGGCELRVKFSRSADAPAYKQGQNQLYNELNLGRREEYDVLDKRRGRDPEMGGKPRRKNPQEGLYNELQKDKMAEAYSEIGMKGERRRGKGHDGLYQGLSTATKDTYDALHMQALPPR
# notes: Chimeric antigen receptor; also called MW89-29GB
# B4: CAR 5 - Full (humanized CD123 CAR) (other)
# chain: QIQLVQSGSELKKPGASVKVSCKASGYIFTNYGMNWVRQAPGQGLEWMGWINTYTGESTYSADFKGRFVFSLDTSVSTAYLQINALKAEDTAVYYCARSGGYDPMDYWGQGTTVTVSSGGGGSGGGGSGGGGSGGGGSDIVLTQSPDSLAVSLGERATINCRASESVDNYGNTFMHWYQQKPGQPPKLLIYRASNLESGVPDRFSGSGSRTDFTLTISSLQAEDVAVYYCQQSNEDPPTFGQGTKLEIKTTTPAPRPPTPAPTIASQPLSLRPEACRPAAGGAVHTRGLDFACDIYIWAPLAGTCGVLLLSLVITLYCKRGRKKLLYIFKQPFMRPVQTTQEEDGCSCRFPEEEEGGCELRVKFSRSADAPAYKQGQNQLYNELNLGRREEYDVLDKRRGRDPEMGGKPRRKNPQEGLYNELQKDKMAEAYSEIGMKGERRRGKGHDGLYQGLSTATKDTYDALHMQALPPR
# notes: Chimeric antigen receptor on transduced human T cells; also called GW86-29RB
# B5: CAR 7 Full (humanized CD123 CAR) (other)
# chain: QIQLVQSGAEVKKPGASVKVSCKASGYIFTNYGMNWVRQAPGQRLEWMGWINTYTGESTYSADFKGRVTITLDTSASTAYMELSSLRSEDTAVYYCARSGGYDPMDYWGQGTTVTVSSGGGGSGGGGSGGGGSGGGGSDIVLTQSPDSLAVSLGERATINCRASESVDNYGNTFMHWYQQKPGQPPKLLIYRASNLESGVPDRFSGSGSRTDFTLTISSLQAEDVAVYYCQQSNEDPPTFGQGTKLEIKTTTPAPRPPTPAPTIASQPLSLRPEACRPAAGGAVHTRGLDFACDIYIWAPLAGTCGVLLLSLVITLYCKRGRKKLLYIFKQPFMRPVQTTQEEDGCSCRFPEEEEGGCELRVKFSRSADAPAYKQGQNQLYNELNLGRREEYDVLDKRRGRDPEMGGKPRRKNPQEGLYNELQKDKMAEAYSEIGMKGERRRGKGHDGLYQGLSTATKDTYDALHMQALPPR
# notes: Chimeric antigen receptor on transduced human T cells; also called WW88-24LB
# B6: CD123 CAR 1172 (mouse anti-human CD123 CAR, scFv 32716 light-to-heavy, CD8 hinge, 4-1BB, CD3zeta) (other)
# chain: GSDIVLTQSPASLAVSLGQRATISCRASESVDNYGNTFMHWYQQKPGQPPKLLIYRASNLESGIPARFSGSGSRTDFTLTINPVEADDVATYYCQQSNEDPPTFGAGTKLELKGGGGSGGGGSSGGGSQIQLVQSGPELKKPGETVKISCKASGYIFTNYGMNWVKQAPGKSFKWMGWINTYTGESTYSADFKGRFAFSLETSASTAYLHINDLKNEDTATYFCARSGGYDPMDYWGQGTSVTVSSASSGTTTPAPRPPTPAPTIASQPLSLRPEACRPAAGGAVHTRGLDFACDIYIWAPLAGTCGVLLLSLVITLYCKRGRKKLLYIFKQPFMRPVQTTQEEDGCSCRFPEEEEGGCELRVKFSRSADAPAYKQGQNQLYNELNLGRREEYDVLDKRRGRDPEMGGKPRRKNPQEGLYNELQKDKMAEAYSEIGMKGERRRGKGHDGLYQGLSTATKDTYDALHMQALPPR
# notes: Chimeric antigen receptor expressed on human T cells; also called C1172; clone 72
# Target: T1, immobilized CD123
# Experiment: ELISA, soluble scFv on immobilized CD123
row,Binder,EC50 [nM]
1,B1,1.1 to 2.6

# Target: T2, human CD123-Fc
# Experiment: flow cytometry of transduced T cells (day 10) stained with human CD123-Fc, then anti-human Fc PE; unit not given
# Text: To detect the transduction efficiency and level of expression of each construct, transduced T cells on day 10 of expansion were stained with (i) Alexa fluor 647 goat anti-mouse F(ab) reagent, (ii) FITC goat anti-human F(ab), or (iii) human CD123-Fc primary followed by anti-human Fc PE.
row,Binder,Expression by CD123-Fc
1,B2,73.2
2,B3,0.64
3,B4,46.1
4,B5,51
5,B6,32.3
